Measured values taken from PMC6321396.

Experiments:
[1] = biological target: ApHt_20, IsCT-like antimicrobial venom peptide from Mesobuthus martensii Karsch (Mesobuthus martensii Karsch)
[2] = biological target: ApHt_20, IsCT-like antimicrobial venom peptide from Mesobuthus martensii Karsch (Mesobuthus martensii Karsch); remark: listed apart in the source

Which results are given for “HAP-1, short-chain highly acidic peptide from Mesobuthus martensii Karsch”?
agar diffusion assay against Staphylococcus aureus AB94004: minimum concentration of HAP-1 required to completely inhibit the inhibition zone made by 40 nM ApHt 20 [1]: 140 nM; MIC of ApHt 20 against Staphylococcus aureus AB94004 in the presence of 32 μM HAP-1 (8 μM without HAP-1) [2]: 16 µM
